Patent US7189691B2, “Methods and compositions for treating leukemia” (The Administrators of the Tulane Educational Fund, priority 2004, dated 2007)
Ends that are not written are not given here.

Columns and labels:
AF4-AF9 interaction = biological target: T1, AF4-AF9 interaction (Homo sapiens, UniProt P42568); test: Enzyme-linked protein binding assay, GST-AF4(749-775) and biotinylated AF9; details: peptide 20 μg/ml; FIG. 2A
T1 construct: made in house; host or cells: GST-AF4 from E. coli; AF9 by coupled in vitro transcription/translation (Promega)
T1 sequence (P42568 211-568): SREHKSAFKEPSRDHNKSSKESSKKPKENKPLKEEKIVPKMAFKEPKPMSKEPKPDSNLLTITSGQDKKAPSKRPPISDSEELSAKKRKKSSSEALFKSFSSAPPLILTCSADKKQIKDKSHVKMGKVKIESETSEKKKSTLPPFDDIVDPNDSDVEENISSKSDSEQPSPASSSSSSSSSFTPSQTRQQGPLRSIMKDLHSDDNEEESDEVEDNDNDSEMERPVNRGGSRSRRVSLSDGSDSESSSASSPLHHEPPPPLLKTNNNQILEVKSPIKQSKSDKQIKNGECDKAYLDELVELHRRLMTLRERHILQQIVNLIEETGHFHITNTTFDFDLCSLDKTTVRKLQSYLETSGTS
Method: Next, an enzyme-linked protein binding assay was developed as a potential high throughput tool to semi-quantitatively assess the ability of various compounds to disrupt the AF4-AF9 interaction in vitro (FIGS. 2A and 2B).
GST-AF4 (749–775) SEQ ID NO: 107 was bound to glutathione-coated 96-well plates and incubated with biotinylated AF9 in conjunction with 20 μg/ml of the following peptides: • (a) Pen-[…], a fusion protein of PENETRATIN™ transporter peptide to the amino terminus of […](SEQ ID NO: 110, PFmut), • (b) Pen-[…], a fusion protein of the transporter protein PENETRATIN™ to the amino terminus of […](SEQ ID NO: 2; or PFWT), • (c) […] or […](SEQ ID NO: 111); • (d) […] or […] (SEQ ID NO: 112); • (e) […] or […](SEQ ID NO: 113), or with • (f) DMSO, or • (g) GST-Cx, a control.
The plate was washed and the retention of AF9 was determined by a colorimetric assay using streptavidin-alkaline phosphatase and pNPP as a substrate. […] At this same peptide concentration, PFmut (a) in col. […] The 10 amino acid peptide (d) in col. 6 is the smallest molecule found to have activity in vitro.

B1 leukemia cell line = test: MTT viability assay; format: cell-based; details: 72 h, differing concentrations
Method: All cell lines were maintained in RPMI 1640+10% FCS. 100 μl aliquots of cell suspension (5×10^5 cells/ml) were cultured in flat-bottomed 96 well plates in the presence of different concentrations of peptides. After 72 h incubation at 37° C. in humidified air containing 5% CO2, viable cell number was determined by MTT assay as follows: 10 μl of 3-[4,5-dimethylthiazol-2-yl]-2,5-diphenyl tetrazolium bromide (MTT) (5 mg/ml concentration) (Sigma) was added to each well and incubated further for 6 h. Formazan crystals that are formed during incubation were dissolved in 100 μl of acidified isopropanol. The optical density at 550 nm (which is linearly related to the number of viable cells) was measured using a plate spectrophotometer. Growth characteristics of the leukemia cell lines were also determined for cells by Trypan Blue exclusion.

| Substance | AF9 binding to GST-AF4 (retention of AF9) (AF4-AF9 interaction) | cell viability (B1 leukemia cell line) |
| --- | --- | --- |
| LWVKIDLDLLSR [(c)] | block AF9 binding |  |
| Leu-Trp-Val-Lys-Ile-Asp-Leu-Asp-Leu-Leu- (LWVKIDLDLL; structurally based on a fragment of the naturally occuring human and murine AF4 protein family members) [(d)] | block AF9 binding |  |
| Lys-Lys-Lys-Lys-Lys-Lys-Arg-Lys-Val-Leu-Ile-Val-Arg-Ile-Asp-Leu-Asp-Leu-Leu-Ser- (KKKKKKRKVLIVRIDLDLLS; structurally based on a fragment of the naturally occuring human and murine AF4 protein family members) [SPK4] |  | inhibits |
| WVKIDLDL [(e)] | did not interfere with AF9 binding |  |
